From article PMC6511732 come the findings set out here.

“And” between values parts separate entries of the source, which are not always exact repeats. Identical values can stand only once. Like-named read-outs stand apart in the source and are kept apart here.

Holding throughout (assay): native MS
One test addresses Phycocyanin α6β6 complex.
For test [1], the target named is Phycocyanin α6β6γ complex.
Test [2] addresses Phycocyanin αβ-heterodimer.
The target of test [3] is Phycocyanin αβ-heterodimer. The source holds these as a separate data set.
Test [4] deals with R-phycoerythrin α6β6γ complex.

Usually stoichiometry N stands for a count of units in the complex or per binding partner. Take Phycocyanin α6β6 complex: the stoichiometry N with Phycocyanin α6β6 complex was 2.
Take Phycocyanin α6β6γ complex: the stoichiometry N in test [1] was determined as 2.
In the case of Phycocyanin αβ-heterodimer (complex), the stoichiometry N in test [2] is 6; in test [3], 3 and 6.
As to R-phycoerythrin α6β6γ complex, the stoichiometry N in test [4] turned out to be 2.
